# Measurements from PMC9720954, “Blood–brain barrier penetrating neprilysin degrades monomeric amyloid-beta in a mouse model of Alzheimer’s disease” (Alzheimer's Research & Therapy, 2022).
# Assays:
# Aβ1-40 monomers = molecular target: T1, Aβ1-40 monomers (Homo sapiens (synthetic peptide; …, UniProt P05067); experiment: ELISA; sandwich ELISA; 1 nM Aβ1-40 monomers or 1 nM Aβ1-42 aggregates held by coated rabbit polyclonal antibodies (C-terminal of Aβ, or Aβ1-42); serial dilutions of the recombinant proteins in 0.1% BSA, 0.05% Tween-20 in PBS, 2 h at RT; goat anti-mouse HRP; conditions: both partners purified
# T1 construct: amyloid-beta 1-40, cut product of the amyloid precursor protein (APP); numbers count on: the Aβ peptide; Used as monomers, held on the plate by a rabbit polyclonal antibody against the C-terminus of Aβ; also called Aβ40; wt-Aβ1-40; source: bought: Innovagen
# Aβ1-42 aggregates = molecular target: T2, Aβ1-42 aggregates (Homo sapiens (synthetic peptide; …, UniProt P05067); experiment: as above; conditions: both partners purified
# T2 construct: amyloid-beta 1-42, cut product of the amyloid precursor protein (APP); numbers count on: the Aβ peptide; Soluble aggregates; also called Aβ42; Aβ1-42 soluble aggregates; source: aggregates prepared as previously described [50]
# T2 sequence (P05067 672-713): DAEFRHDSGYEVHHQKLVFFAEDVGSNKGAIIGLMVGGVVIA
# T1 sequence (P05067 672-711): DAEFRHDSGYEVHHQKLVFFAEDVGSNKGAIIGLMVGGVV
binder,measurement,setting,value
"scFc-scFv8D3 (scFv, V domains shown, first variable domain of scFv8D3, as in m1; (G4S)3 linker between the two parts of scFv8D3, written out from the printed formula; second variable domain of scFv8D3, as in m1; in-house linker between scFv8D3 and scFc; Lacks NEP; the control of the study; the signal peptide is cleaved on expression; Mw 81 kDa; also called scFv8D3-scFc; source: Expi293 cells, transfected (pcDNA3.4), purified …) VH: EVQLVESGGGLVQPGNSLTLSCVASGFTFSNYGMHWIRQAPKKGLEWIAMIYYDSSKMNYADTVKGRFTISRDNSKNTLYLEMNSLRSEDTAMYYCAVPTSHYVVDVWGQGVSVTVSS VL: DIQMTQSPASLSASLEEIVTITCQASQDIGNWLAWYQQKPGKSPQLLIYGATSLADGVPSRFSGSRSGTQFSLKISRVQVEDIGIYYCLQAYNTPWTFGGGTKLELK",binding result,Aβ1-40 monomers,no binding
same,binding result,Aβ1-42 aggregates,no binding
